Laboratory results: the supplement of paper PMC7125110
± gives the standard error. For part of these data: This sample holds only a part of the variants without activity.

B1: glmS ribozyme (parent)
chain: AUAAAAGCGCCAGAACUACAGAAAUGUAGUUGACGAGGAGGAGGUUUAUCGAAUUUUCGGCGGAUGCCUCCAAA

How the values were obtained:
Details in all cases: with glucosamine-6-phosphate
glucosamine-6-phosphate [1] = variants of: B1; assay: kcat; higher = faster cleavage; RNA array
Procedure, shortened: (§1)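 Ribozyme variants carrying barcodes were transcribed in situ on sequenced MiSeq chips by E. coli RNA polymerase and tracked at 37 °C with a hybridised Cy3 probe. They were exposed to 40 μM to 10 mM glucosamine-6-phosphate in HEPES/KCl/Mg(OAc)2 buffer. kobs came from exponential decay fits of normalised per-tile medians, and kcat and KM from weighted Michaelis–Menten fits.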

glucosamine-6-phosphate [2] = variants of: B1; assay: KM; higher = weaker cofactor use; RNA array
Procedure, shortened: as §1

glucosamine-6-phosphate [3] = variants of: B1; assay: self-cleavage kobs at 40 uM GlcN6P; higher = faster cleavage; RNA array
Procedure, shortened: as §1

glucosamine-6-phosphate [4] = variants of: B1; assay: self-cleavage kobs at 640 uM GlcN6P; higher = faster cleavage; RNA array
Procedure, shortened: as §1

glucosamine-6-phosphate [5] = variants of: B1; assay: self-cleavage kobs at 2500 uM GlcN6P; higher = faster cleavage; RNA array
Procedure, shortened: as §1

glucosamine-6-phosphate [6] = variants of: B1; assay: self-cleavage kobs at 10000 uM GlcN6P; higher = faster cleavage; RNA array
Procedure, shortened: as §1

glucosamine-6-phosphate [7] = variants of: B1; assay: self-cleavage kobs at 160 uM GlcN6P; higher = faster cleavage; RNA array
Procedure, shortened: as §1

In the case of AUAAAAGCGCCAGAACUACAGAAAUGUAGUUGACGAGGAGGAGGUGUAUCGAAUUUUCGGCGGAUACCUCCAAA [U46G G66A], the kcat (glucosamine-6-phosphate [1]) is reported as 0.00746 ± 0.0016 s⁻¹, the KM (glucosamine-6-phosphate [2]) is reported as 2580 ± 720 µM and the “self-cleavage kobs at 40 uM GlcN6P” value (glucosamine-6-phosphate [3]) is reported as 0.000106 ± 1.6e-05 s⁻¹. The “self-cleavage kobs at 640 uM GlcN6P” value (glucosamine-6-phosphate [4]) was 0.00155 ± 0.00019 s⁻¹, the “self-cleavage kobs at 2500 uM GlcN6P” value (glucosamine-6-phosphate [5]) was 0.00502 ± 0.0011 s⁻¹ and the “self-cleavage kobs at 10000 uM GlcN6P” value (glucosamine-6-phosphate [6]) was 0.00541 ± 0.001 s⁻¹.

AUAAAAGCGCCAGAACUACAGAAAUGUAGUUGACGAGGAGGAGGUGUAUCGAAUUUUCGGCGGACGCCUCCAAA [U46G U65C] was tested, and the kcat (glucosamine-6-phosphate [1]) was 4.23e-05 ± 1.3e-06 s⁻¹, the KM (glucosamine-6-phosphate [2]) was 1730 ± 260 µM and the “self-cleavage kobs at 10000 uM GlcN6P” value (glucosamine-6-phosphate [6]) was 3.6e-05 ± 7.3e-06 s⁻¹.

With AUAAAAGCGCCAGAACUACAGAAAUGUAGUUGACGAGGAGGAGGUGUAUCGAAUUUUCGGCGGAGGCCUCCAAA [U46G U65G] the kcat (glucosamine-6-phosphate [1]) was 0.00226 ± 0.00027 s⁻¹, the KM (glucosamine-6-phosphate [2]) was 2130 ± 380 µM and the “self-cleavage kobs at 40 uM GlcN6P” value (glucosamine-6-phosphate [3]) was 4.1e-05 ± 8.8e-06 s⁻¹. For the same variant, the “self-cleavage kobs at 160 uM GlcN6P” value (glucosamine-6-phosphate [7]) was 0.000189 ± 3.4e-05 s⁻¹, the “self-cleavage kobs at 640 uM GlcN6P” value (glucosamine-6-phosphate [4]) was 0.000467 ± 7.5e-05 s⁻¹ and the “self-cleavage kobs at 2500 uM GlcN6P” value (glucosamine-6-phosphate [5]) was 0.00124 ± 0.00017 s⁻¹. The “self-cleavage kobs at 10000 uM GlcN6P” value (glucosamine-6-phosphate [6]) was 0.0019 ± 0.0003 s⁻¹.

In the case of AUAAAAGCGCCAGAACUACAGAAAUGUAGUUGACGAGGAGGAGGUGUAUCGAGUUUUCGGCGGAUGCCUCCAAA [U46G A53G], the kcat (glucosamine-6-phosphate [1]) is reported as 0.00499 ± 0.0025 s⁻¹, the “self-cleavage kobs at 40 uM GlcN6P” value (glucosamine-6-phosphate [3]) is reported as 0.000271 ± 7.8e-05 s⁻¹ and the “self-cleavage kobs at 160 uM GlcN6P” value (glucosamine-6-phosphate [7]) is reported as 0.000482 ± 0.00011 s⁻¹. The “self-cleavage kobs at 640 uM GlcN6P” value (glucosamine-6-phosphate [4]) was 0.00165 ± 0.00049 s⁻¹, the “self-cleavage kobs at 2500 uM GlcN6P” value (glucosamine-6-phosphate [5]) was 0.00267 ± 0.00089 s⁻¹ and the “self-cleavage kobs at 10000 uM GlcN6P” value (glucosamine-6-phosphate [6]) was 0.00811 ± 0.0028 s⁻¹.

In the case of AUAAAAGCGCCAGAACUACAGAAAUGUAGUUGACGAGGAGGAGGUGUAUCGAAUUUUCGGCGGAUGCCACCAAA [U46G U69A], the kcat (glucosamine-6-phosphate [1]) is reported as 0.000212 ± 5.4e-05 s⁻¹, the “self-cleavage kobs at 40 uM GlcN6P” value (glucosamine-6-phosphate [3]) is reported as 6.14e-05 ± 1.9e-05 s⁻¹ and the “self-cleavage kobs at 160 uM GlcN6P” value (glucosamine-6-phosphate [7]) is reported as 9.88e-05 ± 1.7e-05 s⁻¹. For the same variant, the “self-cleavage kobs at 640 uM GlcN6P” value (glucosamine-6-phosphate [4]) was 0.000212 ± 4.2e-05 s⁻¹, the “self-cleavage kobs at 2500 uM GlcN6P” value (glucosamine-6-phosphate [5]) was 0.000306 ± 4.6e-05 s⁻¹ and the “self-cleavage kobs at 10000 uM GlcN6P” value (glucosamine-6-phosphate [6]) was 0.000143 ± 3.6e-05 s⁻¹.

AUAAAAGCGCCAGAACUACAGAAAUGUAGUUGACGAGGAGGAGGUGUAUCGAAUUUUCGGCGGAUGCCCCCAAA [U46G U69C] was tested, and the kcat (glucosamine-6-phosphate [1]) was 0.0015 ± 0.00017 s⁻¹, the KM (glucosamine-6-phosphate [2]) was 539 ± 120 µM and the “self-cleavage kobs at 40 uM GlcN6P” value (glucosamine-6-phosphate [3]) was 0.000136 ± 3.6e-05 s⁻¹. The “self-cleavage kobs at 160 uM GlcN6P” value (glucosamine-6-phosphate [7]) was 0.000315 ± 7.8e-05 s⁻¹, the “self-cleavage kobs at 640 uM GlcN6P” value (glucosamine-6-phosphate [4]) was 0.00072 ± 0.00016 s⁻¹ and the “self-cleavage kobs at 2500 uM GlcN6P” value (glucosamine-6-phosphate [5]) was 0.00128 ± 0.00028 s⁻¹. For the same variant, the “self-cleavage kobs at 10000 uM GlcN6P” value (glucosamine-6-phosphate [6]) was 0.00149 ± 0.00027 s⁻¹.

In the case of AUAAAAGCGCCAGAACUACAGAAAUGUAGUUGACGAGGAGGAGGUGUAGCGAAUUUUCGGCGGAUGCCUCCAAA [U46G U49G], the kcat (glucosamine-6-phosphate [1]) is reported as 9.12e-05 ± 1.4e-05 s⁻¹, the “self-cleavage kobs at 40 uM GlcN6P” value (glucosamine-6-phosphate [3]) is reported as under 1e-05 s⁻¹ and the “self-cleavage kobs at 2500 uM GlcN6P” value (glucosamine-6-phosphate [5]) is reported as 8.04e-05 ± 1.8e-05 s⁻¹. For the same variant, the “self-cleavage kobs at 10000 uM GlcN6P” value (glucosamine-6-phosphate [6]) was 7.66e-05 ± 1.7e-05 s⁻¹.

With AUAAAAGCGCCAGAACUACAGAAAUGUAGUUGACGAGGAGGAGGUGUAUCGAAGUUUCGGCGGAUGCCUCCAAA [U46G U54G] the kcat (glucosamine-6-phosphate [1]) was 0.0123 ± 0.0017 s⁻¹, the KM (glucosamine-6-phosphate [2]) was 3110 ± 510 µM and the “self-cleavage kobs at 40 uM GlcN6P” value (glucosamine-6-phosphate [3]) was 0.000155 ± 2.6e-05 s⁻¹. For the same variant, the “self-cleavage kobs at 160 uM GlcN6P” value (glucosamine-6-phosphate [7]) was 0.000596 ± 0.00017 s⁻¹, the “self-cleavage kobs at 640 uM GlcN6P” value (glucosamine-6-phosphate [4]) was 0.00224 ± 0.0004 s⁻¹ and the “self-cleavage kobs at 2500 uM GlcN6P” value (glucosamine-6-phosphate [5]) was 0.00479 ± 0.0013 s⁻¹. The “self-cleavage kobs at 10000 uM GlcN6P” value (glucosamine-6-phosphate [6]) was 0.0102 ± 0.003 s⁻¹.

In the case of AUAAAAGCGCCAGAACUACAGAAAUGUAGUUGACGAGGAGGAGGUUAUUCGAAUUUUCGGCGGAUGCCUCCAAA [U47A A48U], the kcat (glucosamine-6-phosphate [1]) is reported as 0.000219 ± 1.3e-05 s⁻¹, the KM (glucosamine-6-phosphate [2]) is reported as 1570 ± 190 µM and the “self-cleavage kobs at 640 uM GlcN6P” value (glucosamine-6-phosphate [4]) is reported as 6.18e-05 ± 1e-05 s⁻¹. The “self-cleavage kobs at 2500 uM GlcN6P” value (glucosamine-6-phosphate [5]) was 0.000143 ± 2.2e-05 s⁻¹ and the “self-cleavage kobs at 10000 uM GlcN6P” value (glucosamine-6-phosphate [6]) was 0.000181 ± 3.1e-05 s⁻¹.

With AUAAAAGCGCCAGAACUACAGAAAUGUAGUUGACGAGGAGGAGGUUAGUCGAAUUUUCGGCGGAUGCCUCCAAA [U47A A48G] the kcat (glucosamine-6-phosphate [1]) was 7.44e-05 ± 1.1e-05 s⁻¹, the “self-cleavage kobs at 640 uM GlcN6P” value (glucosamine-6-phosphate [4]) was 7.58e-05 ± 2e-05 s⁻¹ and the “self-cleavage kobs at 2500 uM GlcN6P” value (glucosamine-6-phosphate [5]) was 8.16e-05 ± 2.9e-05 s⁻¹. The “self-cleavage kobs at 10000 uM GlcN6P” value (glucosamine-6-phosphate [6]) was 6.69e-05 ± 1.3e-05 s⁻¹.

With AUAAAAGCGCCAGAACUACAGAAAUGUAGUUGACGAGGAGGAGGUGCAUCGAAUUUUCGGCGGAUGCCUCCAAA [U46G U47C] the kcat (glucosamine-6-phosphate [1]) was 0.00353 ± 0.0011 s⁻¹, the KM (glucosamine-6-phosphate [2]) was 981 ± 440 µM and the “self-cleavage kobs at 40 uM GlcN6P” value (glucosamine-6-phosphate [3]) was 0.000104 ± 2.7e-05 s⁻¹. For the same variant, the “self-cleavage kobs at 160 uM GlcN6P” value (glucosamine-6-phosphate [7]) was 0.000744 ± 0.00015 s⁻¹, the “self-cleavage kobs at 640 uM GlcN6P” value (glucosamine-6-phosphate [4]) was 0.00158 ± 0.00026 s⁻¹ and the “self-cleavage kobs at 2500 uM GlcN6P” value (glucosamine-6-phosphate [5]) was 0.00225 ± 0.00047 s⁻¹. For the same variant, the “self-cleavage kobs at 10000 uM GlcN6P” value (glucosamine-6-phosphate [6]) was 0.00332 ± 0.0012 s⁻¹.

AUAAAAGCGCCAGAACUACAGAAAUGUAGUUGACGAGGAGGAGGUGUAUCGAAUUUUCGGCGGAUGCCUCCAAA [U46G] was tested, and the kcat (glucosamine-6-phosphate [1]) was 0.0111 ± 0.0013 s⁻¹, the KM (glucosamine-6-phosphate [2]) was 2110 ± 340 µM and the “self-cleavage kobs at 40 uM GlcN6P” value (glucosamine-6-phosphate [3]) was 0.000228 ± 4.5e-06 s⁻¹. The “self-cleavage kobs at 160 uM GlcN6P” value (glucosamine-6-phosphate [7]) was 0.000671 ± 2.7e-05 s⁻¹, the “self-cleavage kobs at 640 uM GlcN6P” value (glucosamine-6-phosphate [4]) was 0.00241 ± 6.1e-05 s⁻¹ and the “self-cleavage kobs at 2500 uM GlcN6P” value (glucosamine-6-phosphate [5]) was 0.00589 ± 0.00015 s⁻¹. For the same variant, the “self-cleavage kobs at 10000 uM GlcN6P” value (glucosamine-6-phosphate [6]) was 0.00965 ± 0.00026 s⁻¹.

With AUAAAAGCGCCAGAACUACAGAAAUGUAGUUGACGAGGAGGAGGUGUAUCGAAUUUUCGGCGGAUGCCUACAAA [U46G C70A] the kcat (glucosamine-6-phosphate [1]) was 0.000224 ± 6.8e-05 s⁻¹, the “self-cleavage kobs at 40 uM GlcN6P” value (glucosamine-6-phosphate [3]) was 4.78e-05 ± 1.2e-05 s⁻¹ and the “self-cleavage kobs at 160 uM GlcN6P” value (glucosamine-6-phosphate [7]) was 4.54e-05 ± 1.6e-05 s⁻¹. The “self-cleavage kobs at 640 uM GlcN6P” value (glucosamine-6-phosphate [4]) was 0.000153 ± 2.5e-05 s⁻¹, the “self-cleavage kobs at 2500 uM GlcN6P” value (glucosamine-6-phosphate [5]) was 0.000395 ± 7.2e-05 s⁻¹ and the “self-cleavage kobs at 10000 uM GlcN6P” value (glucosamine-6-phosphate [6]) was 0.000188 ± 3.1e-05 s⁻¹.
